In this assay the target is T1, onconase bearing a six His tag (Rana pipiens, UniProt P22069 1-104).
T1 construct: also called His-tagged onconase
T1 sequence: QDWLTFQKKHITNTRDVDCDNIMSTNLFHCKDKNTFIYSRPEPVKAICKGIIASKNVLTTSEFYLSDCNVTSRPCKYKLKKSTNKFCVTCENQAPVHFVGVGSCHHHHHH
Kind of assay: SPR (Biacore C1 chip): IMP 267 immobilised by a disulfide and loaded with NiCl2, flow cell without nickel as control, His-tagged onconase at 0-50 nM as analyte. How it is done: IMP 267 was bound to a Biacore® C1 sensor chip first by dissolving 0.0040 g of IMP 267 in 690 μL of 0.01 M, pH 4.3 formate buffer. The chip was activated for coupling of the peptide via a disulfide linkage using pyridyldithioelthylamine (“PDEA”) as described by Biacore. The Biacore® C1 chip was activated with a 10 μL aliquot of the recommended 1-ethyl-3-(3-dimethylaminoprolyl) carbodiimide (“EDC”)/N-hydroxysuccinimide (“NHS”) mixture at 5 μL/min in flow cells 1 & 2. The recommended PDEA solution, 35 μL (0.0047 g PDEA in 0.1 M, pH 8.5 Borate buffer) was added to the chip at flow cells 1 & 2. The peptide, 35 μL was added to flow cells 1 & 2 and the chip was quenched with an aliquot of cysteine (made from 0.0026 g cys, 0.0268 g NaCl, and 433 μL 0.1 M, pH 4.3 formate buffer) into cells 1 & 2. The chip was activated by adding nickel to only one flow cell using the other flow cell, without nickel, as the control. The activation was done at 40 μL/min using 100 μL of a 500 μM NiCl₂ solution in NTA buffer. A kinetics experiment was performed using the following concentrations of onconase bearing a six His tag (50 nM, 25 nM, 10 nM, 5 nM, 1 nM and 0 nM). […] The affinity of His-tagged onconase is accessed similarly.
For orientation: SPR reads the build-up and loss of mass on a sensor chip optically.

These results are taken from patent publication US20050261170A1 (published 2005).

Primed or numbered codes have the meaning given here. NTA′ = nitrilotriacetic acid residue (Asp with its nitrogen carboxymethylated)

In general, Kd refers to the equilibrium constant for the complex coming apart.

B1: IMP 267 (peptide)
peptide: Ac-CK(NTA′)K(NTA′)K(NTA′)-NH2
modifications: also: Cys thiol coupled to Biacore C1 chip by disulfide (PDEA), loaded with Ni2+
notes: Synthetic tri-NTA peptide; also called peptide that includes nitrilotriacetic acid residues
B1 showed a Kd of 1.15 nM.
